# Measured values taken from patent US20210253718A1 (MODMAB THERAPEUTICS, published 2021).
# T1: FZD3 cysteine-rich domain (CRD), MYC-tagged and GPI-anchored on CHO cells (human, UniProt Q9NPG1 24-150, GPI anchor)
# T1 construct: domain: cysteine-rich domain (CRD); also called FZD3 CRD; CHO-myc-FZDGPI; not shown: MYC tag and GPI anchor signal
# T1 sequence (looked up): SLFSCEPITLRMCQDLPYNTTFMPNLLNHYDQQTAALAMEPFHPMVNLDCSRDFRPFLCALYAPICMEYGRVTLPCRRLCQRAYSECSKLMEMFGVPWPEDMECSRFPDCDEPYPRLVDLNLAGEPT
# T2: FZD5 cysteine-rich domain (CRD), MYC-tagged and GPI-anchored on CHO cells (human, UniProt Q13467 29-156, GPI anchor)
# T2 construct: also called FZD5 CRD; CHO-myc-FZDGPI; not shown: MYC tag and GPI anchor signal
# T2 sequence: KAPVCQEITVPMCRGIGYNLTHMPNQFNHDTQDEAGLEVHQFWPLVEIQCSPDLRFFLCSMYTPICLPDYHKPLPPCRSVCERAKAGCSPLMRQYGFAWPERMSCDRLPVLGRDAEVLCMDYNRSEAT
# T3: FZD6 cysteine-rich domain (CRD), MYC-tagged and GPI-anchored on CHO cells (human, UniProt O60353 20-146, GPI anchor)
# T3 construct: also called FZD6 CRD; CHO-myc-FZDGPI; not shown: MYC tag and GPI anchor signal
# T3 sequence: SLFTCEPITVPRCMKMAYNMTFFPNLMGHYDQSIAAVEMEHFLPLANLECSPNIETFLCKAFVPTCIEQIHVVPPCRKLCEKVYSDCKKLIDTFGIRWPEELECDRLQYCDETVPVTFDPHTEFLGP
# T4: FZD8 cysteine-rich domain (CRD), MYC-tagged and GPI-anchored on CHO cells (human, UniProt Q498S8 31-155 (rat entry), GPI anchor)
# T4 construct: also called FZD8 CRD; CHO-myc-FZDGPI; not shown: MYC tag and GPI anchor signal
# T4 sequence: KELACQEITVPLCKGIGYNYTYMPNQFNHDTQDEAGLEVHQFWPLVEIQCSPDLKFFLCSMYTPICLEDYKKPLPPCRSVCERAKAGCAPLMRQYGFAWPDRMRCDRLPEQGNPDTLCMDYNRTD
# T5: FZD9 cysteine-rich domain (CRD), MYC-tagged and GPI-anchored on CHO cells (human, UniProt O00144 35-161, GPI anchor)
# T5 construct: also called FZD9 CRD; CHO-myc-FZDGPI; not shown: MYC tag and GPI anchor signal
# T5 sequence: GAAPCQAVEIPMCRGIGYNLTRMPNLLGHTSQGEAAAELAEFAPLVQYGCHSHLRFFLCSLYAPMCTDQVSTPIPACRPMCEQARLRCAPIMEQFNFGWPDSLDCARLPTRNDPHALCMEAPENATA
# T6: FZD10 cysteine-rich domain (CRD), MYC-tagged and GPI-anchored on CHO cells (human, UniProt Q9ULW2 30-156, GPI anchor)
# T6 construct: also called FZD10 CRD; CHO-myc-FZDGPI; not shown: MYC tag and GPI anchor signal
# T6 sequence: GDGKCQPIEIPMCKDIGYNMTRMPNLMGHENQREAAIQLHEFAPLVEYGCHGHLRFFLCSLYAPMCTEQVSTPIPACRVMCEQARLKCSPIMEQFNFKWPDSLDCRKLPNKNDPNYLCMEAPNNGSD
# T7: FZD4 cysteine-rich domain (CRD), MYC-tagged and GPI-anchored on CHO cells (human, UniProt Q9ULV1 42-167, GPI anchor)
# T7 construct: also called FZD4 CRD; CHO-myc-FZDGPI; not shown: MYC tag and GPI anchor signal
# T7 sequence: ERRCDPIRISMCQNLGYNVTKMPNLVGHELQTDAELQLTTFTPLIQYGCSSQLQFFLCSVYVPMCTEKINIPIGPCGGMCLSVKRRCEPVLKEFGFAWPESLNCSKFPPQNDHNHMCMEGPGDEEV
# Tests used:
# [1] = biological target: FZD1 cysteine-rich domain (CRD), MYC-tagged and GPI-anchored on CHO cells (human); assay: flow cytometry, CHO-CRD cells;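 also: flow cytometry of Fab binding to CHO cells overexpressing a Frizzled CRD, with binding defined as median fluorescence over twice that of CHO cells lacking any Frizzled CRD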
# Method: (§1) Binding was measured via flow cytometry analysis of CHO cells overexpressing CRD of FZD1, FZD2, FZD3, FZD4, FZD5, FZD6, FZD7, FZD8, FZD9 or FZD10. Median fluorescence values are shown.
# [2] = biological target: FZD2 cysteine-rich domain (CRD), MYC-tagged and GPI-anchored on CHO cells (human, UniProt Q14332 35-161); assay: flow cytometry, CHO-CRD cells;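 also: flow cytometry of Fab binding to CHO cells overexpressing a Frizzled CRD, with binding defined as median fluorescence over twice that of CHO cells lacking any Frizzled CRD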
# Method: as §1
# [3] = biological target: T1, FZD3 cysteine-rich domain (CRD), …; assay: flow cytometry, CHO-CRD cells;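 also: flow cytometry of Fab binding to CHO cells overexpressing a Frizzled CRD, with binding defined as median fluorescence over twice that of CHO cells lacking any Frizzled CRD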
# Method: as §1
# [4] = biological target: T2, FZD5 cysteine-rich domain (CRD), …; assay: flow cytometry, CHO-CRD cells;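 also: flow cytometry of Fab binding to CHO cells overexpressing a Frizzled CRD, with binding defined as median fluorescence over twice that of CHO cells lacking any Frizzled CRD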
# Method: as §1
# [5] = biological target: T3, FZD6 cysteine-rich domain (CRD), …; assay: flow cytometry, CHO-CRD cells
# Method: as §1
# [6] = biological target: FZD7 cysteine-rich domain (CRD), MYC-tagged and GPI-anchored on CHO cells (human, UniProt O75084 45-169); assay: flow cytometry, CHO-CRD cells
# Method: as §1
# [7] = biological target: T4, FZD8 cysteine-rich domain (CRD), …; assay: flow cytometry, CHO-CRD cells
# Method: as §1
# [8] = biological target: T5, FZD9 cysteine-rich domain (CRD), …; assay: flow cytometry, CHO-CRD cells
# Method: as §1
# [9] = biological target: T6, FZD10 cysteine-rich domain (CRD), …; assay: flow cytometry, CHO-CRD cells
# Method: as §1
# [10] = biological target: T1, FZD3 cysteine-rich domain (CRD), …; assay: immunofluorescence, CHO-CRD cells
# [11] = biological target: T3, FZD6 cysteine-rich domain (CRD), …; assay: immunofluorescence, CHO-CRD cells
# [12] = biological target: T5, FZD9 cysteine-rich domain (CRD), …; assay: immunofluorescence, CHO-CRD cells
# [13] = biological target: T6, FZD10 cysteine-rich domain (CRD), …; assay: immunofluorescence, CHO-CRD cells
# [14] = biological target: T7, FZD4 cysteine-rich domain (CRD), …; assay: flow cytometry, CHO-CRD cells
# Method: as §1
# [15] = biological target: T7, FZD4 cysteine-rich domain (CRD), …; assay: immunofluorescence, CHO-CRD cells
Binder,median fluorescence [1],median fluorescence [2],median fluorescence [3],median fluorescence [4],median fluorescence [5],median fluorescence [6],median fluorescence [7],median fluorescence [8],median fluorescence [9],binding result [10],binding result [11],binding result [12],binding result [13],median fluorescence [14],binding result [15]
"Fab-2904 (Fab, V domains shown, Fab; also called Fv-2904) VH: EVQLVESGGGLVQPGGSLRLSCAASGFNIYSYSMHWVRQAPGKGLEWVAYISSSYGYTSYADSVKGRFTISADTSKNTAYLQMNSLRAEDTAVYYCARSWYAWAMDYWGQGTLVTVSS VL: DIQMTQSPSSLSASVGDRVTITCRASQSVSSAVAWYQQKPGKAPKLLIYSASSLYSGVPSRFSGSRSGTDFTLTISSLQPEDFATYYCQQSSYSLITFGQGTKVEIK",15.5,12,4.14,29.7,3.59,42.9,10.1,3.37,3.43,no binding,no binding,no binding,no binding,–,–
"Fab-2907 (Fab, V domains shown, Fab; also called Fv-2907) VH: EVQLVESGGGLVQPGGSLRLSCAASGFNIYSSYMHWVRQAPGKGLEWVASISSYSGSTYYADSVKGRFTISADTSKNTAYLQMNSLRAEDTAVYYCARSSWGAYIVSYGFDYWGQGTLVTVSS VL: DIQMTQSPSSLSASVGDRVTITCRASQSVSSAVAWYQQKPGKAPKLLIYSASSLYSGVPSRFSGSRSGTDFTLTISSLQPEDFATYYCQQVGYWWGLITFGQGTKVEIK",–,–,3.79,–,3.06,–,–,2.86,2.76,no binding,no binding,no binding,no binding,3.96,no binding
"Fab-2899 (Fab, V domains shown, Fab; also called Fv-2899) VH: EVQLVESGGGLVQPGGSLRLSCAASGFNLYYYYMHWVRQAPGKGLEWVASIYPSSGSTSYADSVKGRFTISADTSKNTAYLQMNSLRAEDTAVYYCARGALDYWGQGTLVTVSS VL: DIQMTQSPSSLSASVGDRVTITCRASQSVSSAVAWYQQKPGKAPKLLIYSASSLYSGVPSRFSGSRSGTDFTLTISSLQPEDFATYYCQQWYSSYGLITFGQGTKVEIK",19.5,20.7,7.91,33.7,4.37,54.2,12.8,4.7,5,no binding,no binding,no binding,no binding,–,–

# More lines, now with the values ahead:
median fluorescence [1],median fluorescence [2],median fluorescence [3],median fluorescence [4],median fluorescence [5],median fluorescence [6],median fluorescence [7],median fluorescence [8],median fluorescence [9],binding result [10],binding result [11],binding result [12],binding result [13],median fluorescence [14],binding result [15],Binder
14.5,–,4.1,34.9,4.1,8.74,26.7,143,21.1,no binding,no binding,–,–,46.4,–,"Fab-2933 (Fab, V domains shown, Fab; also called Fv-2933) VH: EVQLVESGGGLVQPGGSLRLSCAASGFNLYSSYMHWVRQAPGKGLEWVASIYSSYGYTSYADSVKGRFTISADTSKNTAYLQMNSLRAEDTAVYYCARTVRGSKKPYFSGWAMDYWGQGTLVTVSS VL: DIQMTQSPSSLSASVGDRVTITCRASQSVSSAVAWYQQKPGKAPKLLIYSASSLYSGVPSRFSGSRSGTDFTLTISSLQPEDFATYYCQQFWWYASWLFTFGQGTKVEIK"
–,–,3.92,37.5,3.05,–,–,3.31,4.53,no binding,no binding,no binding,no binding,4.53,no binding,"Fab-2925 (Fab, V domains shown, Fab; also called Fv-2925) VH: EVQLVESGGGLVQPGGSLRLSCAASGFNLSYSSMHWVRQAPGKGLEWVASIYPSYGSTYYADSVKGRFTISADTSKNTAYLQMNSLRAEDTAVYYCARYGYFGLDYWGQGTLVTVSS VL: DIQMTQSPSSLSASVGDRVTITCRASQSVSSAVAWYQQKPGKAPKLLIYSASSLYSGVPSRFSGSRSGTDFTLTISSLQPEDFATYYCQQAWVYASLFTFGQGTKVEIK"
30.1,–,6.26,33.1,3.79,22.2,13.8,4.87,4.37,no binding,no binding,no binding,no binding,–,–,"Fab-2930 (Fab, V domains shown, Fab; also called Fv-2930) VH: EVQLVESGGGLVQPGGSLRLSCAASGFNLSYYYIHWVRQAPGKGLEWVASIYPYSGSTSYADSVKGRFTISADTSKNTAYLQMNSLRAEDTAVYYCARGALDYWGQGTLVTVSS VL: DIQMTQSPSSLSASVGDRVTITCRASQSVSSAVAWYQQKPGKAPKLLIYSASSLYSGVPSRFSGSRSGTDFTLTISSLQPEDFATYYCQQWYGPYLITFGQGTKVEIK"
41,19.8,4.61,32.2,4.1,56.7,7.57,4.45,3.82,no binding,no binding,no binding,no binding,47,–,"Fab-2912 (Fab, V domains shown, Fab; also called Fv-2912) VH: EVQLVESGGGLVQPGGSLRLSCAASGFNISYSYIHWVRQAPGKGLEWVASISSSSGYTSYADSVKGRFTISADTSKNTAYLQMNSLRAEDTAVYYCARTVRGSKKPYFSGWAMDYWGQGTLVTVSS VL: DIQMTQSPSSLSASVGDRVTITCRASQSVSSAVAWYQQKPGKAPKLLIYSASSLYSGVPSRFSGSRSGTDFTLTISSLQPEDFATYYCQQFYFPYLITFGQGTKVEIK"
